{
  "source": "patent US6001988",
  "key": {"[1]": {"biological_target": "T1, L-selectin (LS-Rg) (Homo sapiens) (UniProt P14151)", "T1 sequence": "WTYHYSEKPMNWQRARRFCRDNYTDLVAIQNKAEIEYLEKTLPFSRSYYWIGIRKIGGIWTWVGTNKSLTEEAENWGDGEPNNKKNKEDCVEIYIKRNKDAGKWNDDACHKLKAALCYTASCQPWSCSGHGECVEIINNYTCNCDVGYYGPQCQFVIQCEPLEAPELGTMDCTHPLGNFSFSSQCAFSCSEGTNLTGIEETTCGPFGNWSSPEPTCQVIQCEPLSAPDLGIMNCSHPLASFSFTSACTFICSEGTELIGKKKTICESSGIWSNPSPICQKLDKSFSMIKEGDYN", "test": "filter"}, "[2]": {"biological_target": "T2, P-selectin (PS-Rg) (Homo sapiens) (UniProt P16109)", "T2 sequence": "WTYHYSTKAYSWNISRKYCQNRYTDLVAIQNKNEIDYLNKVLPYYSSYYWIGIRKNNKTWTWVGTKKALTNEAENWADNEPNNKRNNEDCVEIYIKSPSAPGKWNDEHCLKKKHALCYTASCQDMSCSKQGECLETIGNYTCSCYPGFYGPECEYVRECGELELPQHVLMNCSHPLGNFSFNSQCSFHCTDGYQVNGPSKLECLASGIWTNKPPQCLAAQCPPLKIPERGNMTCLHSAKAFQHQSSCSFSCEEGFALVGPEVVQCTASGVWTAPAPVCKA", "test": "filter"}, "[3]": {"biological_target": "T3, E-selectin (ES-Rg) (Homo sapiens) (UniProt P16581)", "T3 sequence": "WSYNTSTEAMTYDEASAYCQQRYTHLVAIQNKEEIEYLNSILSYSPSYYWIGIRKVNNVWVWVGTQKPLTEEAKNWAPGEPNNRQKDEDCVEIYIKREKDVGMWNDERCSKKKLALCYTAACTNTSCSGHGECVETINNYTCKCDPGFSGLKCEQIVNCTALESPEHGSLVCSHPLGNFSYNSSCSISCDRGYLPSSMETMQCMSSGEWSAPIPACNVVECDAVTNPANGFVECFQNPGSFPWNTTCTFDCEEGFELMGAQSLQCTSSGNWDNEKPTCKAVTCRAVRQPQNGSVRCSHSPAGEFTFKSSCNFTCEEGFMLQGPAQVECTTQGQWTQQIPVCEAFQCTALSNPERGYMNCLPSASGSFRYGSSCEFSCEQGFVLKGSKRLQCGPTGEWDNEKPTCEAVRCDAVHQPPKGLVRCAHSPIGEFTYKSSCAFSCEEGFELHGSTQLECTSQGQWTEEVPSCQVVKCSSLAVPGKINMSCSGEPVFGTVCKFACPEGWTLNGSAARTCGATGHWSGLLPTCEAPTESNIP", "test": "filter"}, "CD22beta (CD22beta-Rg)": {"biological_target": "CD22beta (CD22beta-Rg) (UniProt P20273)", "sequence (P20273 20-687)": "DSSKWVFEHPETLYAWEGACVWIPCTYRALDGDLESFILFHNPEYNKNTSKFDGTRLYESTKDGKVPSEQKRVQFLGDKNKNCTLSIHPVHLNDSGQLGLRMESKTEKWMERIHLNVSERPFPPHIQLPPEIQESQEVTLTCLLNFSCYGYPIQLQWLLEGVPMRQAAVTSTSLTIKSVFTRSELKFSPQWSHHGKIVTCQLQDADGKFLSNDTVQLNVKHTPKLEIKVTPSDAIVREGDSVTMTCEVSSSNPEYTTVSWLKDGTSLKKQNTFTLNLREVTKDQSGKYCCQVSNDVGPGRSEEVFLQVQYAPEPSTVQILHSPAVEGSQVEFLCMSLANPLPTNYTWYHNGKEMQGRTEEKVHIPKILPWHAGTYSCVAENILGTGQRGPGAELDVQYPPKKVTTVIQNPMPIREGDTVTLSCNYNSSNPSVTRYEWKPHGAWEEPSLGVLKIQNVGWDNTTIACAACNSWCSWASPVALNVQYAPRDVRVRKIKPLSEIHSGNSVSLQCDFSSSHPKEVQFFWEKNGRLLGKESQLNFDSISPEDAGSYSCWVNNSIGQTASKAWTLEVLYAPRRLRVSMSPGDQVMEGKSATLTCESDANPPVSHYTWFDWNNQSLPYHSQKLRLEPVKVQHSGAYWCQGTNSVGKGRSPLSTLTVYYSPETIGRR", "test": "filter"}, "[4]": {"biological_target": "T4, wheat germ agglutinin (WGA) (Triticum vulgare) (UniProt P10968)", "T4 sequence": "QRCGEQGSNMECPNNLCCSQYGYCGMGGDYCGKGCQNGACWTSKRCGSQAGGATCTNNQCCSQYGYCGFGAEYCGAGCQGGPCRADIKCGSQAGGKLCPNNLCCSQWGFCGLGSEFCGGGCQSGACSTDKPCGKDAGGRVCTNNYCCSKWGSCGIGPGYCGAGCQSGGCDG", "test": "filter"}, "[5]": {"system": "Datura stramonium lectin (Datura stramonium)", "test": "filter", "details": "2'-NH2 all C and U"}, "[6]": {"biological_target": "T1, L-selectin (LS-Rg) (Homo sapiens)", "test": "inhibition", "details": "2'-NH2 all C and U; inhibits LS-Rg binding to immobilized sialyl-Lewis X, room temp, Ca/Mg"}, "[7]": {"biological_target": "T5, L-selectin on PBMC (Homo sapiens) (UniProt P14151)", "T5 sequence": "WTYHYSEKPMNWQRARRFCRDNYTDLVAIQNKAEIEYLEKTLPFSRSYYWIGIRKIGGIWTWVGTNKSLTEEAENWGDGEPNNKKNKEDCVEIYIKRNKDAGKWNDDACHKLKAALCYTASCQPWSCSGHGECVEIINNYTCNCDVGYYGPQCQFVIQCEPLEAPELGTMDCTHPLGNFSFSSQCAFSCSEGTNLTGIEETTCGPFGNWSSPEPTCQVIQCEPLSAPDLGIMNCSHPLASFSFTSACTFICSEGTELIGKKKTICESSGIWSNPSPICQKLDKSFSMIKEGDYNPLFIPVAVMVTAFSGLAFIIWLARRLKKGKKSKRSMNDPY", "details": "2'-NH2 all C and U; PBMC binding on ice; competed by DREG-56 anti-L-selectin antibody"}, "[8]": {"details": "2'-NH2 all C and U, HBSS, room temp"}, "[9]": {"details": "2'-NH2 on all C and U, <5% binding at highest protein, 4 C, HSMC"}},
  "data": [
    {"sequence": "CTACCTACGATCTGACTAGCCGAGGATCTGATACTTATTGAACATAMCCGCACNCAGGCTTGCTTACTCTCATGTAGTTCC [102]", "values": [
      {"measurement": "Kd", "setting": "[1]; 37 C, room temp not determined", "result": 7.9, "unit": "nM"}
    ]},
    {"sequence": "CTACCTACGATCTGACTAGCCGAGGTAGTCGTTATAGGGTRCRCACGACACAAARCRGTRGCTTACTCTCATGTAGTTCC [127]", "values": [
      {"measurement": "Kd", "setting": "[2]; room temp, Ca/Mg buffer", "result": 0.78, "unit": "µM"},
      {"measurement": "Kd", "setting": "[3]; room temp, Ca/Mg buffer", "result": 1.3, "unit": "µM"},
      {"measurement": "Kd", "setting": "CD22beta (CD22beta-Rg); <1% binding at 700 nM, room temp", "result": "> 100", "unit": "µM"},
      {"measurement": "Kd", "setting": "[1]; room temp, 890 pM at 37 C", "result": 1, "unit": "nM"},
      {"measurement": "Kd", "setting": "[4]; <3% binding at 1.4 µM, room temp", "result": "> 100", "unit": "µM"}
    ]},
    {"sequence": "CTACCTACGATCTGACTAGCNNNNNNNNNNNNNNNNNNNNNNNNNNNNNNNNNNNNNNNNGCTTACTCTCATGTAGTTCC [random 40BH ssDNA pool]", "values": [
      {"measurement": "Kd", "setting": "[1]; estimate for random ssDNA", "result": 10000, "unit": "nM"}
    ]},
    {"sequence": "GGGAAAAGCGAAUCAUACACAAGAAAGGGAUGGGAUUGGGACGAGCGGCCAAGACUCGGCGGGAACGAAGGGUCCGCUCCGCCAGAGACCAACCGAGAA [6.8]", "values": [
      {"measurement": "Kd", "setting": "[5]; <5% bound at 1 uM protein", "result": "> 20", "unit": "µM"}
    ]},
    {"sequence": "GGGAAAAGCGAAUCAUACACAAGACAGCGGCGGAGUCAGUGAAAGCGUGGGGGGYGCGGGAGGUCUACCCUGACGCUCCGCCAGAGACCAACCGAGAA [6.14]", "values": [
      {"measurement": "Kd", "setting": "[4]; 2'-NH2 all C and U, <5% bound at 1 uM WGA", "result": "> 20", "unit": "µM"}
    ]},
    {"sequence": "GGGAAAAGCGAAUCAUACACAAGACGGCUGUGUGGUGUUGGAGCGUCAUAGUAGGAGUCGUCACGAACCAAGGCGCUCCGCCAGAGACCAACCGAGAA [11.24]", "values": [
      {"measurement": "Kd", "setting": "[5]; <5% bound at 1 uM protein", "result": "> 20", "unit": "µM"}
    ]},
    {"sequence": "GGGAAAAGCGAAUCAUACACAAGACUGGCAAGRAGUGCGUGAGGGUACGUUAGGGGUGUUUGGGCCGAUCGCAUGCUCCGCCAGAGACCAACCGAGAA [11.7]", "values": [
      {"measurement": "Kd", "setting": "[4]; [8]", "result": 0.016, "unit": "µM"}
    ]},
    {"sequence": "GGGAAAAGCGAAUCAUACACAAGAGAGGUGRAUGGGAGAGUGGAGCCCGGGUGACUCGAGGAUUCCCGUGCUCCGCCAGAGACCAACCGAGAA [11.3]", "values": [
      {"measurement": "Kd", "setting": "[4]; [8]", "result": 0.41, "unit": "µM"}
    ]},
    {"sequence": "GGGAAAAGCGAAUCAUACACAAGAGUAGGAGGUUCCAUCACCAGGACUCGGCGGGAACGGAAGGUGAUGSGCUCCGCCAGAGACCAACCGAGAA [11.35]", "values": [
      {"measurement": "Kd", "setting": "[4]; [8]", "result": 0.09, "unit": "µM"}
    ]},
    {"sequence": "GGGAAAAGCGAAUCAUACACAAGANNNNNNNNNNNNNNNNNNNNNNNNNNNNNNNNNNNNNNNNNNNNNNNNNNGCUCCGCCAGAGACCAACCGAGAA [random 50N9 RNA pool]", "values": [
      {"measurement": "Kd", "setting": "[4]; 2'-NH2 all C and U, no binding at 36 uM WGA monomer", "result": "> 4000", "unit": "µM"}
    ]},
    {"sequence": "GGGAAAAGCGAAUCAUACACAAGAUUGGUCGUACUGGACAGAGCCGUGGUAGAGGGAUUGGGACAAAGUGUCAGCUCCGCCAGAGACCAACCGAGAA [11.20]", "values": [
      {"measurement": "Kd", "setting": "[5]; HBSS, room temp", "result": 11.2, "unit": "µM"}
    ]},
    {"sequence": "GGGAGGACGAUGCGGAAGUGAAGCUAAAGCGGAGGGCCAUUCAGUUUCNCACCACAGACGACUCGCCCGA [F14.2]", "values": [
      {"measurement": "Kd", "setting": "[2]; 2'-NH2 all C and U, 4 C, HSMC", "result": 0.45, "unit": "µM"},
      {"measurement": "Kd", "setting": "[3]; 2'-NH2 all C and U, 4 C, HSMC", "result": 1.9, "unit": "µM"},
      {"measurement": "Kd", "setting": "CD22beta (CD22beta-Rg); [9]", "result": "> 20", "unit": "µM"},
      {"measurement": "Kd", "setting": "[1]; 2'-NH2 all C and U, 4 C, HSMC, 7.2 nM at room temp", "result": 1.8, "unit": "nM"}
    ]},
    {"sequence": "GGGAGGACGAUGCGGAAGUGAAGCUAAAGSGGAGGGCCACUCAGAAACGCACCACAGACGACUCGCCCGA [F14.13]", "values": [
      {"measurement": "Kd", "setting": "[1]; 2'-NH2 all C and U, 4 C, HSMC, biphasic, fraction 0.74, low affinity Kd 270 nM", "result": 1.3, "unit": "nM"}
    ]},
    {"sequence": "GGGAGGACGAUGCGGCCGUACAUGGUAARCCUCGAAGGAUUCCCGGGAUGAUCCCCAGACGACUCGCCCGA [F14.27]", "values": [
      {"measurement": "Kd", "setting": "[1]; 2'-NH2 all C and U, 4 C, HSMC", "result": 145, "unit": "nM"}
    ]},
    {"sequence": "GGGAGGACGAUGCGGNNNNNNNNNNNNNNNNNNNNNNNNNNNNNNNNNNNNNNNNCAGACGACUCGCCCGA [random 40N7 RNA pool]", "values": [
      {"measurement": "Kd", "setting": "[1]; 2'-NH2 all C and U, estimate for random RNA", "result": 10000, "unit": "nM"}
    ]},
    {"sequence": "GGGAGGACGAUGCGGUAACAACAAUCAAGGCGGGUUYACCGCCCCAGUAUGAGUACAGACGACUCGCCCGA [F14.12]", "values": [
      {"measurement": "IC50", "setting": "[6]", "result": 0.01, "unit": "µM"},
      {"measurement": "Kd", "setting": "[7]", "result": 0.0013, "unit": "µM"},
      {"measurement": "Kd", "setting": "[2]; 2'-NH2 all C and U, 4 C, HSMC", "result": 0.91, "unit": "µM"},
      {"measurement": "Kd", "setting": "[3]; 2'-NH2 all C and U, 4 C, HSMC", "result": 0.047, "unit": "µM"},
      {"measurement": "Kd", "setting": "CD22beta (CD22beta-Rg); 2'-NH2 all C and U, <5% bound at up to 660 nM, 4 C", "result": "> 20", "unit": "µM"},
      {"measurement": "Kd", "setting": "[1]; 2'-NH2 all C and U, 4 C, HSMC, Table IX prints 5.8 pM (fraction 0.68, low affinity Kd 16.2 nM), 1.7 nM at room temp", "result": 0.06, "unit": "nM"}
    ]},
    {"sequence": "GGGAGGACGAUGCGGUCCAGAGCGUGAAGAUCAACGUCCCGGNGUCGAAGACAGACGACUCGCCCGA [F14.70]", "values": [
      {"measurement": "Kd", "setting": "[3]; 2'-NH2 all C and U, 4 C, HSMC", "result": 5.9, "unit": "µM"},
      {"measurement": "Kd", "setting": "CD22beta (CD22beta-Rg); [9]", "result": "> 20", "unit": "µM"},
      {"measurement": "Kd", "setting": "[1]; 2'-NH2 all C and U, 4 C, HSMC, biphasic, fraction 0.75, low affinity Kd 254 nM, 7.8 nM at room temp", "result": 2, "unit": "nM"}
    ]}
  ]
}
